Source: the PETadex activity labels (doi:10.3389/fbioe.2022.865787)

Key:
[1] = substrate: p-NP-C10; settings: pH 8; 35 °C
[2] = substrate: p-NP-C12; settings: pH 8; 35 °C
[3] = substrate: p-NP-C14; settings: pH 8; 35 °C
[4] = substrate: p-NP-C16; settings: pH 8; 35 °C
[5] = substrate: p-NP-C18; settings: pH 8; 35 °C
[6] = substrate: p-NP-C2; settings: pH 8; 35 °C
[7] = substrate: p-NP-C4; settings: pH 8; 35 °C
[8] = substrate: p-NP-C6; settings: pH 8; 35 °C
[9] = substrate: p-NP-C8; settings: pH 8; 35 °C
[10] = substrate: pNPB; assay: Proxy for plastic degradation [Absorbance @ 405nm]
[11] = substrate: PET; assay: Proxy for plastic degradation [Released monomer concentration (HPLC/LC-MS) (TPA)]; settings: pH 8.5
[12] = substrate: PET; assay: Proxy for plastic degradation [Released monomer concentration (HPLC/LC-MS) (BHET)]; settings: pH 8.5
[13] = substrate: PET; assay: Proxy for plastic degradation [Released monomer concentration (HPLC/LC-MS) (MHET)]; settings: pH 8.5
[14] = substrate: PET; assay: Proxy for plastic degradation [Released monomer concentration (HPLC/LC-MS) (Total aromatic products)]; settings: pH 8.5

B1: unnamed (protein)
chain: MLTHSISPEETDGGRRTPLSRMSRLAARVGVTLSLAAGLTAGVTAPAHASNPYERGPAPTESSVTAVRGYFDTDTDTVSSLVSGFGGGTIYYPTDTSEGTFGGVVIAPGYTASQSSMAWMGHRIASQGFVVFTIDTITRYDQPDSRGRQIEAALDYLVEDSDVADRVDGNRLAVMGHSMGGGGTLAAAENRPELRAAIPLTPWHLQKNWSDVEVPTMIIGAENDTVASVRTHSIPFYESLDEDLERAYLELDGASHFAPNISNTVIAKYSISWLKRFVDEDERYEQFLCPPPDTGLFSDFSDYRDSCPHTT
- Km [1]: 4930 µM
- kcat [1]: 69.9 s⁻¹
- kcat/Km [1]: 14200 M⁻¹ s⁻¹
- Km [2]: 1680 µM
- kcat [2]: 30.5 s⁻¹
- kcat/Km [2]: 18200 M⁻¹ s⁻¹
- Km [3]: 190 µM
- kcat [3]: 9.87 s⁻¹
- kcat/Km [3]: 51900 M⁻¹ s⁻¹
- Km [4]: 150 µM
- kcat [4]: 4.79 s⁻¹
- kcat/Km [4]: 31900 M⁻¹ s⁻¹
- Km [5]: 450 µM
- kcat [5]: 14.3 s⁻¹
- kcat/Km [5]: 31800 M⁻¹ s⁻¹
- Km [6]: 550 µM
- kcat [6]: 4.47 s⁻¹
- kcat/Km [6]: 8130 M⁻¹ s⁻¹
- Km [7]: 1330 µM
- kcat [7]: 14.1 s⁻¹
- kcat/Km [7]: 10600 M⁻¹ s⁻¹
- Km [8]: 4610 µM
- kcat [8]: 41.7 s⁻¹
- kcat/Km [8]: 9050 M⁻¹ s⁻¹
- Km [9]: 2550 µM
- kcat [9]: 79.4 s⁻¹
- kcat/Km [9]: 31100 M⁻¹ s⁻¹
- Proxy for plastic degradation ([10]; pH 8): 100%
- Proxy for plastic degradation ([10]; pH 8, 0 h): 100%
- Proxy for plastic degradation ([10]; pH 8.5): 97.5%
- Proxy for plastic degradation ([11]; 12 h): 5 µM
- Proxy for plastic degradation ([11]; 24 h): 12.5 µM
- Proxy for plastic degradation ([11]; 36 h): 25 µM
- Proxy for plastic degradation ([11]; 48 h): 50 µM
- Proxy for plastic degradation ([11]; 60 h): 70 µM
- Proxy for plastic degradation ([11]; 72 h): 75 µM
- Proxy for plastic degradation ([11]; 84 h): 120 µM
- Proxy for plastic degradation ([11]; 96 h): 150 µM
- Proxy for plastic degradation ([11]; 108 h): 180 µM
- Proxy for plastic degradation [12]: 1 µM
- Proxy for plastic degradation ([13]; 12 h): 5 µM
- Proxy for plastic degradation ([13]; 24 h): 10 µM
- Proxy for plastic degradation ([13]; 36 h): 20 µM
- Proxy for plastic degradation ([13]; 48 h): 70 µM
- Proxy for plastic degradation ([13]; 60 h): 105 µM
- Proxy for plastic degradation ([13]; 72 h): 140 µM
- Proxy for plastic degradation ([13]; 84 h): 135 µM
- Proxy for plastic degradation ([13]; 96 h): 155 µM
- Proxy for plastic degradation ([13]; 108 h): 150 µM
- Proxy for plastic degradation ([14]; 30 °C): 45 µM
- Proxy for plastic degradation ([14]; 35 °C): 130 µM
- Proxy for plastic degradation ([14]; 40 °C): 230 µM
- Proxy for plastic degradation ([14]; 45 °C): 330 µM
- Proxy for plastic degradation ([14]; 50 °C): 100 µM

B2: unnamed (protein)
chain: MLTHSISPEETDGGRRTPLSRMSRLAARVGVTLSLAAGLTAGVTAPAHASNPYERGPAPTESSVTAVRGYFDTDTDTVSSLVSGFGGGTIYYPTDTSEGTFGGVVIAPGYTASQSSMAWMGHRIASQGFVVFTIDTITRYDQPDSRGRQIEAALDYLVEDSDVADRVDGNRLAVMGHSMGGGGTLAAAENRPELRAAIPLTPWHLQKNWSDVEVPTMIIGAENDTVASVRTHSIPFYESLDEDLERAYLELAGASHFAPNISNTVIAKYSISWLKRFVDEDERYEQFLCPPPDTGLFSDFSDYRDSCPHTT
- Proxy for plastic degradation ([10]; pH 8, 0 h): 100%
- Proxy for plastic degradation ([10]; pH 8, 5 °C): 15%
- Proxy for plastic degradation ([10]; pH 8, 10 °C): 17.5%
- Proxy for plastic degradation ([10]; pH 8, 15 °C): 20%
- Proxy for plastic degradation ([10]; pH 8, 20 °C): 32.5%
- Proxy for plastic degradation ([10]; pH 8, 25 °C): 50%
- Proxy for plastic degradation ([10]; pH 8, 30 °C): 90%
- Proxy for plastic degradation ([10]; pH 8, 35 °C): 100%
- Proxy for plastic degradation ([10]; pH 8, 40 °C): 80%
- Proxy for plastic degradation ([10]; pH 8, 45 °C): 70%
- Proxy for plastic degradation ([10]; pH 8, 50 °C): 37.5%
- Proxy for plastic degradation ([10]; pH 8, 55 °C): 25%
- Proxy for plastic degradation ([10]; pH 8, 60 °C): 15%
- Proxy for plastic degradation ([10]; pH 8, 65 °C): 12.5%
- Proxy for plastic degradation ([10]; pH 8, 70 °C): 10%
- Proxy for plastic degradation ([10]; pH 8, 20 h): 75%
- Proxy for plastic degradation ([10]; pH 8, 40 h): 70%
- Proxy for plastic degradation ([10]; pH 8, 60 h): 55%
- Proxy for plastic degradation ([10]; pH 8, 80 h): 40%
- Proxy for plastic degradation ([10]; pH 8, 100 h): 35%
- Proxy for plastic degradation ([10]; pH 8, 120 h): 25%

B3: unnamed (protein)
chain: MLTHSISPEETDGGRRTPLSRMSRLAARVGVTLSLAAGLTAGVTAPAHASNPYERGPAPTESSVTAVRGYFDTDTDTVSSLVSGFGGGTIYYPTDTSEGTFGGVVIAPGYTASQSSMAWMGHRIASQGFVVFTIDTITRYDQPDSRGRQIEAALDYLVEDSDVADRVDGNRLAVMGHSMGGGGTLAAAENRPELRAAIPLTPWHLQKNWSDVEVPTMIIGAENDTVASVRTHSIPFYESLDEDLERAYLELDGASHFAPNISNTVIAKYSISWLKRFVDEDERYEQFLCPPPDTGLFSDFADYRDSCPHTT
- Proxy for plastic degradation ([10]; pH 8, 0 h): 100%
- Proxy for plastic degradation ([10]; pH 8, 5 °C): 42.5%
- Proxy for plastic degradation ([10]; pH 8, 10 °C): 45%
- Proxy for plastic degradation ([10]; pH 8, 15 °C): 47.5%
- Proxy for plastic degradation ([10]; pH 8, 20 °C): 55%
- Proxy for plastic degradation ([10]; pH 8, 25 °C): 75%
- Proxy for plastic degradation ([10]; pH 8, 30 °C): 100%
- Proxy for plastic degradation ([10]; pH 8, 35 °C): 92.5%
- Proxy for plastic degradation ([10]; pH 8, 40 °C): 87.5%
- Proxy for plastic degradation ([10]; pH 8, 45 °C): 77.5%
- Proxy for plastic degradation ([10]; pH 8, 50 °C): 62.5%
- Proxy for plastic degradation ([10]; pH 8, 55 °C): 35%
- Proxy for plastic degradation ([10]; pH 8, 60 °C): 20%
- Proxy for plastic degradation ([10]; pH 8, 65 °C): 17.5%
- Proxy for plastic degradation ([10]; pH 8, 70 °C): 15%
- Proxy for plastic degradation ([10]; pH 8, 20 h): 87.5%
- Proxy for plastic degradation ([10]; pH 8, 40 h): 77.5%
- Proxy for plastic degradation ([10]; pH 8, 60 h): 65%
- Proxy for plastic degradation ([10]; pH 8, 80 h): 62.5%
- Proxy for plastic degradation ([10]; pH 8, 100 h): 60%
- Proxy for plastic degradation ([10]; pH 8, 120 h): 57.5%

B4: unnamed (protein)
chain: MNFPRASRLMQAAVLGGLMAVSAAATAQTNPYARGPNPTAASLEASAGPFTVRSFTVSRPSGYGAGTVYYPTNAGGTVGAIAIVPGYTARQSSIKWWGPRLASHGFVVITIDTNSTLDQPSSRSSQQMAALRQVASLNGTSSSPIYGKVDTARMGVMGWSMGGGGSLISAANNPSLKAAAPQAPWDSSTNFSSVTVPTLIFACENDSIAPVNSSALPIYDSMSRNAKQFLEINGGSHSCANSGNSNQALIGKKGVAWMKRFMDNDTRYSTFACENPNSTRVSDFRTANCS
- Proxy for plastic degradation ([11]; 12 h, part of the chain shown): 30 µM
- Proxy for plastic degradation ([11]; 24 h, part of the chain shown): 37.5 µM
- Proxy for plastic degradation ([11]; 36 h, part of the chain shown): 42.5 µM
- Proxy for plastic degradation ([11]; 48 h, part of the chain shown): 47.5 µM
- Proxy for plastic degradation ([11]; 60 h, part of the chain shown): 50 µM
- Proxy for plastic degradation ([11]; 72 h, part of the chain shown): 60 µM
- Proxy for plastic degradation ([11]; 84 h, part of the chain shown): 70 µM
- Proxy for plastic degradation ([11]; 96 h, part of the chain shown): 80 µM
- Proxy for plastic degradation ([11]; 108 h, part of the chain shown): 100 µM
- Proxy for plastic degradation ([13]; 12 h, part of the chain shown): 140 µM
- Proxy for plastic degradation ([13]; 24 h, part of the chain shown): 150 µM
- Proxy for plastic degradation ([13]; 36 h, part of the chain shown): 160 µM
- Proxy for plastic degradation ([13]; 48 h, part of the chain shown): 165 µM
- Proxy for plastic degradation ([13]; 60 h, part of the chain shown): 155 µM
- Proxy for plastic degradation ([13]; 72 h, part of the chain shown): 155 µM
- Proxy for plastic degradation ([13]; 84 h, part of the chain shown): 158 µM
- Proxy for plastic degradation ([13]; 96 h, part of the chain shown): 165 µM
- Proxy for plastic degradation ([13]; 108 h, part of the chain shown): 158 µM
- Proxy for plastic degradation ([14]; 16 h, part of the chain shown): 175 µM
- Proxy for plastic degradation ([14]; 27.75 h, part of the chain shown): 200 µM
- Proxy for plastic degradation ([14]; 39.5 h, part of the chain shown): 210 µM
- Proxy for plastic degradation ([14]; 51.25 h, part of the chain shown): 220 µM
- Proxy for plastic degradation ([14]; 60 h, part of the chain shown): 215 µM
- Proxy for plastic degradation ([14]; 74.75 h, part of the chain shown): 225 µM
- Proxy for plastic degradation ([14]; 86.5 h, part of the chain shown): 235 µM
- Proxy for plastic degradation ([14]; 98.25 h, part of the chain shown): 240 µM
- Proxy for plastic degradation ([14]; 110 h, part of the chain shown): 250 µM
